Changes are numbered by the printed parent chain.
B1: 2A11 antibody (antibody, V domains shown)
VH: QVQLQQPGAELVRPGASVTLSCKASGYTFTDYEMHWVKQTPVHGLEWIGIIDPETGGTAYNQKFKGKATLTADKSSSTAYMELRSLTSEDSAVYYCTRGKFYYSGRDYAMDYWGQGTSVTVSS
VL: DVLMTQTPLSLPVSLGDQASISCRSSQSIVHSNGNTYLEWYLQKPGQSPKLLIYKVSNRFSGVPDRFSGSGSGTDFTLKISRVEAEDLGVYFCFQGSQVPPTFGGGTKLEIK
notes: Mouse monoclonal antibody from a hybridoma; Capture antibody in the sandwich ELISA; also called anti-BAG2 antibody 2A11
B2: 4C2 antibody (antibody, V domains shown)
VH: B1 VH with G57A
VL: B1 VL with I53F
notes: Mouse monoclonal antibody from a hybridoma; also called anti-BAG2 antibody 4C2
B3: 8C4 antibody (antibody, V domains shown)
VH: B1 VH with G56A
VL: B1 VL with I53F
notes: Mouse monoclonal antibody from a hybridoma; also called 8G4 (as misprinted); anti-BAG2 antibody 8C4
B4: 3F12 antibody (antibody, V domains shown)
VH: QVQLQESGPDLVKPSQSLSLTCTVTGYSITSGYSWHWIRQFPGNKLEWMGYIYYRGSTNYNPSLKSRISITRDTSKNQFFLLLKSVTTEDTATYYCAREAYWGQGTLVTVSA
VL: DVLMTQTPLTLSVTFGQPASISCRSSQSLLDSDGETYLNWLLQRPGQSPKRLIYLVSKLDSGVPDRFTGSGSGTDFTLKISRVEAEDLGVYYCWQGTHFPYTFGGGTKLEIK
notes: Mouse monoclonal antibody from a hybridoma; also called anti-BAG2 antibody 3F12
B5: 3B5 antibody (antibody, V domains shown)
VH: EVQLQQSGPELVKPGASVKLSCKASGYSFTDYTFYWVRQSHGESLEWIGYIDPYNGGNTYNRKFKGKATLTVDKSSSTAFMHLNSLTSEDSAVYYCARGYYRYGGGGDFDYWGQGTTLTVSS
VL: B1 VL with I29L, E39H, Y54H, V90I, F94S, G96N, S97T, Q98H, V99I, G104A
notes: Mouse monoclonal antibody from a hybridoma; also called anti-BAG2 antibody 3B5
B6: 9B12 antibody (antibody, V domains shown)
VH: QVQLQQSGAELVRPGTSVKVSCKASGYAFTNYMIEWIKQRPGQGLEWIGVINPGSGGSYYNEKVKGKATLTADRSSSTAYMQFSSLTADDSGVYFCRIYGNYKGYFDHWGQGTTLTVSS
VL: DIVMTQSPSSMYASLGERVTITCKASQDMNSYLSWFQQKPGKSPKTLIYRANRLVDGVPSRFSGSGSGQDYSLTISSLEYEDMGIYYCLQNDEFPFTFGSGTKLEMK
notes: Mouse monoclonal antibody from a hybridoma; Capture antibody in the sandwich ELISA; also called anti-BAG2 antibody 9B12
B7: 3B10 antibody (antibody, V domains shown)
VH: B6 VH with S7P, V12A, Y27H, S58T, N61S, F83L
VL: B6 VL with A51S, E79D, M106I
notes: Mouse monoclonal antibody from a hybridoma; also called anti-BAG2 antibody 3B10
B8: 9B3 antibody (antibody, V domains shown)
VH: B6 VH with Q1E, R74K, G92A, H108Y
VL: B6 VL with M29I, M106I
notes: Mouse monoclonal antibody from a hybridoma; also called anti-BAG2 antibody 9B3
B9: 3G8 antibody (antibody, V domains shown)
VH: QIQLVQSGPELKKPGETVKISCKASGYSFTKYGMNWVKQAPGKDIKWMGWINTNTGEATYGEEVKGRFAFSLETSASTAYLQINNLKNEDTATYFCARLGLRYLDYWGQGTTLTVSS
VL: DIVMTQSPASLVVSLGQRATISCRASKSVSTSDYSYMHWYQQKPGQPPKVLIYLASNLESGVPARFSGSGSGTDFTLNIHPVEEEDAATYYCQHNRELPPTFGAGTKLELK
notes: Mouse monoclonal antibody from a hybridoma; also called 3 GB (as misprinted); anti-BAG2 antibody 3G8

What was measured:
human BAG2 protein [1] = biological target: T1, human BAG2 protein (human, UniProt O95816 2-211); experiment: selection of hybridoma clones by immunoblotting
T1 construct: also called BAG2 polypeptide; Bcl-2-associated athanogene 2
T1 sequence (O95816 2-211 limits assumed): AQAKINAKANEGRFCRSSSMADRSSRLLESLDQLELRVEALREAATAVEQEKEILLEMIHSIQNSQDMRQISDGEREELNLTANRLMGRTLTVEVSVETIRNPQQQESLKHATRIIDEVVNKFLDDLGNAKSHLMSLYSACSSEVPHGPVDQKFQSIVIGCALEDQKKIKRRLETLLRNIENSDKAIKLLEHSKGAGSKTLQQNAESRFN

[2] = biological target: T2, GST-Bag Full (GST fusion of full-length human BAG2) (human, UniProt O95816 1-211); experiment: immunoblot on lysate of HEK293T cells transfected with GST-Bag Full vector
T2 construct: Expressed in HEK293T cells, tested in cell lysate by immunoblot; band at about 50 kDa; also called GST-Bag Full vector product; full-length BAG2 polypeptide; not shown: GST tag from the pcDNA3.1+/GST vector, about 26 kDa
T2 sequence (O95816 whole entry, the tested form may be a part): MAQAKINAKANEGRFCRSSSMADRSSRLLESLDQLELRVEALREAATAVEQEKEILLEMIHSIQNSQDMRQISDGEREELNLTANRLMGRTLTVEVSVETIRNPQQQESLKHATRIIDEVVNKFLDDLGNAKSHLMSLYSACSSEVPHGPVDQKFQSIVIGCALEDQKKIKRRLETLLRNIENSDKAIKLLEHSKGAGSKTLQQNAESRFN
From the text: Next, for domain mapping of the BAG2 antigen to which the ten antibodies identified in Section 1 above, cells, to which the GST-Empty vector (pcDNA3.1+/GST vector, NovoPro Bioscience Inc. China) having a molecular weight of about 26 kDa was introduced, was used as a negative control. GST-Bag Full vector, GST-Bag F1 vector, GST-Bag F2 vector, GST-Bag F3 vector, and GST-Bag F4 vector, each including polynucleotides encoding human BAG2 protein and polynucleotides encoding fragments of the BAG2 protein, were introduced into cells, and the cells with the vectors introduced thereinto were cultured to express the genes, and then, cell lysates were obtained. For cell lysates, immunoblotting was performed using each of the 10 antibodies. The polynucleotide encoding the human BAG2 protein has the nucleotide sequence of SEQ ID NO: 70. The GST-Bag F1, -Bag F2, -Bag F3, and -Bag F4 vectors consist of the nucleotide sequences of SEQ ID NOS: 71 to 74, respectively.
FIGS. 2A and 2B show the results of immunoblotting for the full-length BAG2 polypeptide of anti-BAG2 antibody or a fragment thereof. […] In detail, the immunoblotting was performed as follows: each of the vectors was introduced into HEK293T cells by lipofectamine transfection (Thermo Fisher Scientific, Inc., Waltham, MA, USA) method, and the obtained transformed cells were cultured at a temperature of 37° C. in DMEM (Welgene) medium containing 10% FBS, 100 U/ml penicillin and 100 µg/ml streptomycin for 30 hours, and then cells were isolated. The isolated cells were disrupted using the same method as described in connection with FIG. 1 and subjected to […] analysis on a 12% gel. For immunoblotting, after reacting for 1 hour with the same blocking solution as described in connection with FIG. 1, each of the 10 purified anti-BAG2 antibodies having a concentration of 2 mg/ml was used as a primary antibody at a dilution of 1/10000 dilution and bound to the cells. The goat anti-mouse HRP conjugate used as the secondary antibody was used at a 1/5000 dilution concentration, and Film-photosensing was carried out in the dark using EGL reagent (Amersham Pharmacia Biotech) as a substrate. Standard molecular marker sizes were expressed to confirm the size of BAG2.

Myc-tag BAG2 = biological target: T3, Myc-tag BAG2 (Homo sapiens (Human), UniProt O95816 1-211, limits assumed); experiment: sandwich ELISA on lysate of MDA-MB-231 cells overexpressing Myc-tag BAG2 (OE) against empty vector cells (EV)
T3 construct: Expressed in MDA-MB-231 cells; 30 ug of lysate tested in the sandwich ELISA against cells with the Myc-tag empty vector (EV); not tied to this vector in so many words; also called BAG2 overexpressed from the Myc-tag BAG2 expression vector; OE; not shown: Myc tag
T3 sequence (O95816 whole entry): as the sequence (O95816 whole entry, the tested form may be a part) above

human BAG2 protein [3] = biological target: T1, human BAG2 protein; experiment: Western blot on MDA-MB-231 cell lysate

Row | Binder | binding result (human BAG2 protein [1]) | binding result [2] | binding result (Myc-tag BAG2) | binding result (human BAG2 protein [3])
1 | B1 | binds | binds | binds | 
2 | B2 |  | binds |  | binds
3 | B3 |  | binds | binds | binds
4 | B4 | binds | binds | binds | 
5 | B5 |  | binds |  | binds
6 | B6 |  | binds | binds | binds
7 | B7 |  | binds |  | binds
8 | B8 |  | binds |  | binds
9 | B9 |  | binds | binds | binds
